Holding throughout (test): ITC
(In general: Isothermal titration calorimetry measures the heat released or taken up as one component is titrated into another.)

Assay [1] deals with T1, SARS-CoV-2 spike protein receptor binding domain, wild-type (SARS-CoV-2, UniProt P0DTC2).
Assay [2] addresses T1, SARS-CoV-2 spike protein receptor …. This is another data set of the same source.
The target is the same in assay [3]. This is another data set of the same source.
For assay [4] the target is unchanged. This is another data set of the same source.

Where two headings read alike, the source gives them in different places.

B1: REGN10987 single chain variable fragment (scFv, V domains shown)
VH: QVQLVESGGGVVQPGRSLRLSCAASGFTFSNYAMYWVRQAPGKGLEWVAVISYDGSNKYYADSVKGRFTISRDNSKNTLYLQMNSLRTEDTAVYYCASGSDYGDYLLVYWGQGTLVTVSS
VL: QSALTQPASVSGSPGQSITISCTGTSSDVGGYNYVSWYQQHPGKAPKLMIYDVSKRPSGVSNRFSGSKSGNTASLTISGLQSEDEADYYCNSLTSISTWVFGGGTKLTVL
On to B1, for which the affinity in assay [1], expressed as Kd, was 34.3 ± 8.1 nM.

B2: LY-CoV555 single chain variable fragment (scFv, V domains shown)
VH: QVQLVQSGAEVKKPGSSVKVSCKASGGTFSNYAISWVRQAPGQGLEWMGRIIPILGIANYAQKFQGRVTITADKSTSTAYMELSSLRSEDTAVYYCARGYYEARHYYYYYAMDVWGQGTAVTVSS
VL: not shown
Consider B2, for which the values for the Kd in assay [2] and in assay [3] were 3.8 ± 1.9 nM and 3.9 ± 1.9 nM, respectively.

B3: LY-CoV016 single chain variable fragment (scFv, V domains shown)
VH: EVQLVESGGGLVQPGGSLRLSCAASGFTVSSNYMSWVRQAPGKGLEWVSVIYSGGSTFYADSVKGRFTISRDNSMNTLFLQMNSLRAEDTAVYYCARVLPMYGDYLDYWGQGTLVTVSS
VL: not shown
As to B3, in assay [4], the Kd (commonly the equilibrium constant for the complex coming apart) turned out to be 49.3 ± 10.1 nM and the dH is -11.7 ± 0.1 kcal/mol.

These data come from article PMC9076029 (Journal of Molecular Biology, 2022).
